From article PMC3483115 (The Journal of General Physiology, 2012)

Target: calmodulin (CaM), wild type (UniProt P0DP23 1-149)
Experiment: SEC

binding result: binds
B1: TRPV1-CT35 (TRPV1 C-terminal residues 767–801) (peptide)
chain: EGVKRTLSFSLRSGRVSGRNWKNFALVPLLRDAST
